Reference: US20090180995A1, “NOVEL ANTICOAGULANT POLYPEPTIDES AND COMPLEX” (National University of Singapore, priority 2005, published 2009)
“And” between values parts separate entries of the source, which are not always exact repeats. Equal entries are not always repeated. “Also recorded” adds a separate entry of the source.

T1: FVIIa (Homo sapiens, UniProt P08709)
T1 construct: from tissue; host or cells: human plasma
T1 sequence (P08709 61-212 limits assumed): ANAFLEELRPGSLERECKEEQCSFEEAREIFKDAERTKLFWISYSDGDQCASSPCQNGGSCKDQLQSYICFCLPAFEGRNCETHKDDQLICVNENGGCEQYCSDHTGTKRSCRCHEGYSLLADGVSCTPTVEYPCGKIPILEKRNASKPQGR
T1 sequence (P08709 213-466 limits assumed): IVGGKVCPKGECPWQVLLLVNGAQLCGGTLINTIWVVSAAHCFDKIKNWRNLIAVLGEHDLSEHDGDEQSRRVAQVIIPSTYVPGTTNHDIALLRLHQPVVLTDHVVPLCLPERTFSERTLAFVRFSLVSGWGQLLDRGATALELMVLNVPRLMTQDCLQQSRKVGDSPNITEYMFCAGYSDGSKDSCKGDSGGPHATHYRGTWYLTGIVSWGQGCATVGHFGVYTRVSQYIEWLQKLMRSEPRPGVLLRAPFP


Tests used:
[1] = molecular target: T2, TF-FVIIa complex (Homo sapiens, UniProt P08709); assay: Reconstituted extrinsic tenase complex, FXa formation; assay type: biochemical; conditions: for inhibition of extrinsic tenase activity: 10 pM FVIIa, 70 nM TF, 30 nM FX, FXa by S-2222
T2 construct: tissue Dade Behring Marburg, Germany (TF, Innovin only); host or cells: human plasma (FVIIa)
Description: Reconstitution of the extrinsic tenase complex—TF-FVIIa complex was reconstituted by incubating 10 pM FVIIa with 70 nM of recombinant human TF (Innovin) in Buffer A (20 mM HEPES, 150 mM NaCl, 10 mM CaCl2 and 1% BSA, pH 7.4) for 10 min at 37° C. Then FX was added to the mixture to obtain a final concentration of 30 nM. The activation was stopped by the addition 50 μl of stop buffer (20 mM HEPES, 150 mM NaCl, 50 mM EDTA and 1% BSA, pH 7.4) to 50 μl aliquots of the reaction mixture after 15 min incubation. FXa formed was measured by the hydrolysis 1 mM of S-2222 in Buffer A in a microtiter plate reader at 405 nm. The inhibitory effect on extrinsic tenase activity was determined by adding the individual proteins or the anticoagulant complex 15 min prior to FX addition.

[2] = molecular target: T1, FVIIa; assay: FVIIa amidolytic activity; assay type: biochemical; conditions: absence of sTF; for inhibition of FVIIa amidolytic activity: FVIIa (300 nM)/S-2288
Description: (§1) Serine protease specificity—The selectivity profile of anticoagulant proteins and their complex was examined against 12 serine proteases—procoagulant serine proteases (FIXa, FXa, FXIa, FXIIa, plasma kallikrein and thrombin), anticoagulant serine protease (APC), fibrinolytic serine proteases (urokinase, t-PA and plasmin) and classical serine proteases (trypsin and chymotrypsin). Various concentrations of purified hemextin A/hemextin B and reconstituted hemextin AB complex were preincubated with each of the enzymes (Table 1) for a period of five minutes at a temperature of 37° C., followed by the addition of appropriate chromogenic substrate.
(§2) For studies with FXIa, kallikrein and urokinase, the appropriate substrates were determined prior to their screening against the inhibitors. For FXIa, the Vmax for the amidolytic activity corresponding to the chromogenic substrates S-2266, S-2302 and S-2366 was determined. S-2302 was the substrate with the highest Vmax and thus was used in the screening studies. Similar studies with kallikrein and urokinase were carried out with substrates S-2266, S-2302 and S-2288 for kallikrein and S-2444 and S-2484 for urokinase. In a total volume of 200 μl in the individual wells of the microtiter plate, final concentrations of FVIIa (300 nM)/S-2288, FVIIa-sTF (30 nM)/S-2288, FXa (0.75 nM)/S-2765, α-thrombin (0.66 nM)/S-2238, plasmin (2 nM)/S-2366, FIXa (3 μM)/spectrozyme®fIXa, FXIa (0.34 nM)/S-2366, FXIIa (0.4 nM)/S-2302, recombinant tissue plasminogen activator (80 nM)/S-2288, activated protein C (0.34 nM)/S-2366, urokinase/S-2444, plasma kallikrein (0.4 nM)/S-2302, trypsin (2.17 nM)/S-2222 and chymotrypsin (0.4 nM)/S-2586 were measured. The kinetic rate of substrate hydrolysis (mOD/min) was measured over 5 min.

[3] = molecular target: Factor IXa (Homo sapiens, UniProt P00740); assay: Serine protease specificity, FIXa; assay type: biochemical; conditions: FIXa (3 μM)/Spectrozyme fIXa
Description: as §1, §2

[4] = molecular target: FXa (Homo sapiens, UniProt P00742); assay: Serine protease specificity, FXa; assay type: biochemical; conditions: FXa (0.75 nM)/S-2765
Description: as §1, §2

[5] = molecular target: Factor XIa (Homo sapiens, UniProt P03951); assay: Serine protease specificity, FXIa; assay type: biochemical; conditions: FXIa (0.34 nM)
Description: as §1, §2

[6] = molecular target: Plasma Kallikrein (Homo sapiens, UniProt P03952); assay: Serine protease specificity, plasma kallikrein; assay type: biochemical; conditions: for inhibitory potency towards FVIIa versus plasma kallikrein: FVIIa in the absence or presence of sTF; for Observed Effect, plasma kallikrein amidolytic activity: plasma kallikrein (0.4 nM)/S-2302
Description: as §1, §2

[7] = molecular target: T3, Thrombin (Homo sapiens, UniProt P00734); assay: Serine protease specificity, thrombin; assay type: biochemical; conditions: α-thrombin (0.66 nM)/S-2238
T3 construct: FXa performs a proteolytic cleavage of prothrombin to thrombin
Description: as §1, §2

[8] = molecular target: t-PA (Homo sapiens, UniProt P00750); assay: Serine protease specificity, t-PA; assay type: biochemical; conditions: recombinant tissue plasminogen activator (80 nM)/S-2288
Description: as §1, §2

[9] = molecular target: APC (Homo sapiens, UniProt P04070); assay: Serine protease specificity, APC; assay type: biochemical; conditions: activated protein C (0.34 nM)/S-2366
Description: as §1, §2

[10] = molecular target: Urokinase (Homo sapiens, UniProt P00749); assay: Serine protease specificity, urokinase; assay type: biochemical; conditions: urokinase/S-2444
Description: as §1, §2

[11] = Hydrodynamic diameter by DLS; assay type: physicochemical; conditions: for hydrodynamic diameter (DLS): 50 mM Tris-HCl buffer (pH 7.4), 25° C.; for hydrodynamic diameter (DLS) in buffers of high ionic strength: 75 mM and 150 mM NaCl
Description: (B) Dynamic Light Scattering (DLS)—Complex formation studies with DLS were carried out at 25° C. using a BI200SM instrument (Brookhaven Instruments Corporation, Holstvile, N.Y., USA). A vertically polarized argon ion laser (514.2 nm, 75 mW; NEC model GLG-3112) was used as the light source. Sample solutions of hemextin A (4 mM), hemextin B (4.1 mM) and hemextin AB complex (2.3 mM) were prepared immediately prior to the experiment. The hydrodynamic diameter for the hemextin AB complex and the individual hemextins were recorded at 25° C. in solutions of different ionic strengths and at different glycerol concentrations. The ionic strengths were varied by the addition of NaCl. From the measured translational diffusion coefficient (DT), the hydrodynamic radius (RH) can be calculated using the Stokes-Einstein relation: […]
where kB is the Boltzmann constant, T is the temperature in Kelvin and η being the viscosity of the solvent. The intensity-intensity time correlation functions were obtained with a BI-9000 digital correlator equipped with the instrument. The particle size and size distribution were obtained by analyzing the field correlation function |g^(1)(τ)| using constrained regularized CONTIN method (73).

Chain of FXa (P00742 41-179 limits assumed): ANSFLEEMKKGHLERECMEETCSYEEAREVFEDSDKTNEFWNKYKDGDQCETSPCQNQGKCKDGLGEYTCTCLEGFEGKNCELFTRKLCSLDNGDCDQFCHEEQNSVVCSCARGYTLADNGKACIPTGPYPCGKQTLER
Chain of FXa (P00742 235-488 limits assumed): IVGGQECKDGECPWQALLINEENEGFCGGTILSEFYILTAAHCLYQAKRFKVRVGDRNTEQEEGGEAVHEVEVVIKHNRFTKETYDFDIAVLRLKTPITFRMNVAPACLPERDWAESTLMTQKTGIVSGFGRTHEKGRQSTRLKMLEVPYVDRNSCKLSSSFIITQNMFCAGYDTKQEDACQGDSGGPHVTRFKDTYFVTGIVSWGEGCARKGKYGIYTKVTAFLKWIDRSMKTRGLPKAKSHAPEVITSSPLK
Chain of Factor XIa (P03951 388-625 limits assumed): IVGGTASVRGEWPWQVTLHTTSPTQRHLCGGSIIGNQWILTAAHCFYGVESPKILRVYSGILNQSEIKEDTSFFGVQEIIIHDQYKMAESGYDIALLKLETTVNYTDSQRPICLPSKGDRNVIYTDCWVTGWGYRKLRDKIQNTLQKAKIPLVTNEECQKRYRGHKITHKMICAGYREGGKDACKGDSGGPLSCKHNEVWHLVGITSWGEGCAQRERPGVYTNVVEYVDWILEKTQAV
Chain of Factor XIa (P03951 19-387 limits assumed): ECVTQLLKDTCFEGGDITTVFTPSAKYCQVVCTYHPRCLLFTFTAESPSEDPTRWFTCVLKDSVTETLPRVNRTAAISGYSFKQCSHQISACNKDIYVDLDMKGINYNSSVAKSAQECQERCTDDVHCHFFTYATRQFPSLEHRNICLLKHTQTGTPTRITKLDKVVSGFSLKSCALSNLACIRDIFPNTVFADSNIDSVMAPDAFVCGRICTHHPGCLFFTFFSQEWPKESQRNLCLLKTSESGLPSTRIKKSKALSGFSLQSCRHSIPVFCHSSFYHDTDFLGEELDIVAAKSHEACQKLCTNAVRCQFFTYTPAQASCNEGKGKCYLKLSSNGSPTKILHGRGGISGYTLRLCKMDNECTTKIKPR
Chain of APC (P04070 43-197 limits assumed): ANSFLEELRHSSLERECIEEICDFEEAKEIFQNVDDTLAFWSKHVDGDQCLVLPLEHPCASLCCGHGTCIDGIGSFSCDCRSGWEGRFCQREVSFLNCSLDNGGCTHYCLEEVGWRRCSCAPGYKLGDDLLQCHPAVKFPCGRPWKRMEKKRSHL
Chain of APC (P04070 212-461 limits assumed): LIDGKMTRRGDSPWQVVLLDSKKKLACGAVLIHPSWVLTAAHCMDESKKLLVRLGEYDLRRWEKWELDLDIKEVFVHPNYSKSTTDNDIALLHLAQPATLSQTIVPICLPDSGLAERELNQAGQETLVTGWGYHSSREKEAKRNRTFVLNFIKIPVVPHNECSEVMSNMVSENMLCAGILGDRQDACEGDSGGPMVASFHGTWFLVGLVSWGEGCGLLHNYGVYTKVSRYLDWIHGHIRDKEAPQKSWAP
Chain of Plasma Kallikrein (P03952 391-638 limits assumed, species assumed): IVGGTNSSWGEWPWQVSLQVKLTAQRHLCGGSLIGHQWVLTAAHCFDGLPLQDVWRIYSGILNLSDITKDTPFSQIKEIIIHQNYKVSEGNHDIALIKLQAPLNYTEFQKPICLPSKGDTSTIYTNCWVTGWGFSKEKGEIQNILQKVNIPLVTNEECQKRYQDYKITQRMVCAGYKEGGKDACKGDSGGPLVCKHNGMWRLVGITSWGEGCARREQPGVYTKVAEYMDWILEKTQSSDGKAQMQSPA
Chain of Plasma Kallikrein (P03952 20-390 limits assumed, species assumed): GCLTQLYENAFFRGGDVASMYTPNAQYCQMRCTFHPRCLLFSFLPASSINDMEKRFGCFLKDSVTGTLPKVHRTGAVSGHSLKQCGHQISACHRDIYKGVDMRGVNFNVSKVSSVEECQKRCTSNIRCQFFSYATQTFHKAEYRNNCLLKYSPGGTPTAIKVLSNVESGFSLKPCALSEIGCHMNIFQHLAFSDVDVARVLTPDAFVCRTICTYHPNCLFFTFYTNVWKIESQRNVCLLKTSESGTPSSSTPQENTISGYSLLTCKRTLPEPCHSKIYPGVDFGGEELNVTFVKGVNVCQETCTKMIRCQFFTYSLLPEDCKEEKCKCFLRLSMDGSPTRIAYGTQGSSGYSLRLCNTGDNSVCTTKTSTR
T2 sequence (P13726 33-295 partner, one chain of several): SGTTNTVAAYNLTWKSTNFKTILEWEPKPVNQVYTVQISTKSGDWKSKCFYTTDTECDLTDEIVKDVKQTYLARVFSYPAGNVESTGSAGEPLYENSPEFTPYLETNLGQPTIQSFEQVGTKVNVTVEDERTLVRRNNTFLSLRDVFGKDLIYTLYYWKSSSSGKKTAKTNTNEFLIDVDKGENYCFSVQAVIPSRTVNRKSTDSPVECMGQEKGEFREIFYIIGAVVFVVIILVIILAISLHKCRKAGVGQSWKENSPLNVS
Chain of t-PA (P00750 36-562, species assumed): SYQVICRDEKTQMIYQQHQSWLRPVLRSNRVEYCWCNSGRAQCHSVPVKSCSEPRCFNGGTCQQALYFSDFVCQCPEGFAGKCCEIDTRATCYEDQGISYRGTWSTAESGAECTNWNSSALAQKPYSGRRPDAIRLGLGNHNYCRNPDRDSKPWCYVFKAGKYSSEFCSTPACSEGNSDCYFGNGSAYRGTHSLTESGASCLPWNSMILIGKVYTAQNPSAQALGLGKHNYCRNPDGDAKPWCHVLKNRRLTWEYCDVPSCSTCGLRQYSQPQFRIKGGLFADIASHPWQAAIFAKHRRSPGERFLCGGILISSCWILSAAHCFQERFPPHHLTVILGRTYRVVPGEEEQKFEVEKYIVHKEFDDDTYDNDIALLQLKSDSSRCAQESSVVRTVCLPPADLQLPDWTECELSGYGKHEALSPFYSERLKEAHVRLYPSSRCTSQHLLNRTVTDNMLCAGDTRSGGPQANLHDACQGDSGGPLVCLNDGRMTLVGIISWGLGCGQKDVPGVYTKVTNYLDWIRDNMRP

Molecule | inhibition of extrinsic tenase activity [1] | IC50 [2] [nM] | inhibition of FVIIa amidolytic activity [2] | Observed Effect, Factor IXa amidolytic activity [3] | Observed Effect, FXa amidolytic activity [4] | Observed Effect, Factor XIa amidolytic activity [5] | inhibitory potency towards FVIIa versus plasma kallikrein [6] | Observed Effect, plasma kallikrein amidolytic activity [6] | Observed Effect, thrombin amidolytic activity [7] | Observed Effect, t-PA amidolytic activity [8] | Observed Effect, APC amidolytic activity [9] | Observed Effect, urokinase amidolytic activity [10] | hydrodynamic diameter (DLS) [11] | hydrodynamic diameter (DLS) in buffers of high ionic strength [11] | inhibitory activity of hemextin A on extrinsic tenase with increasing hemextin B ([1]; hemextin A constant at 50 μM)
hemextin A (protein) LKCKNKLVPFLSKTCPEGKNLCYKMTMLKMPKIPIKRGCTDACPKSSLLVKVVCCNKDKCN | mild inhibitory activity at higher concentrations | ~105 | potent inhibitory activity | no inhibitory activity | no inhibitory activity | no inhibitory activity | at least 50 times | inhibit plasma kallikrein in a dose-dependant manner; also recorded: inhibit the amidolytic activity of plasma kallikrein | no inhibitory activity | no inhibitory activity | no inhibitory activity | no inhibitory activity | 10.3 nm and 10.4 nm | 11.57 nm | –
hemextin AB complex: synergistic 1:1 tetrameric complex of hemextin A and hemextin B, reconstituted from equimolar proteins (protein) chain 1: LKCKNKLVPFLSKTCPEGKNLCYKMTMLKMPKIPIKRGCTDACPKSSLLVKVVCCNKDKCN chain 2: LKCKNKVVPFLKCKNKVVPFLCYKMTLKKVPKIPIKRGCTDACPKSSLLVNVMCCKTDKCN | completely inhibited | ~105 | potent inhibitory activity | no inhibitory activity | no inhibitory activity | no inhibitory activity | at least 50 times | inhibit plasma kallikrein in a dose-dependant manner; also recorded: inhibit the amidolytic activity of plasma kallikrein | no inhibitory activity | no inhibitory activity | no inhibitory activity | no inhibitory activity | 16.8 nm | – | –
hemextin B (protein) LKCKNKVVPFLKCKNKVVPFLCYKMTLKKVPKIPIKRGCTDACPKSSLLVNVMCCKTDKCN | did not mediate any inhibitory activity | – | did not exhibit any inhibitory activity | no inhibitory activity | no inhibitory activity | no inhibitory activity | – | did not inhibit | no inhibitory activity | no inhibitory activity | no inhibitory activity | no inhibitory activity | 9.9 nm | No change | increases with the increasing concentrations of hemextin B until the ratio reached 1:1
